According to the Human Domainome abundance scans (Beltran et al. 2025):
± gives the uncertainty stated by the source.

B1: Ras GTPase-activating protein 1, residues 281 to 341; numbered along this chain, P20936 (parent)
chain: RRRVRAILPYTKVPDTDEISFLKGDMFIVHNELEDGWMWVTNLRTDEQGLIVEDLVEEVGR

Variants of: B1
Test: abundance fitness (aPCA) (normalised: wild type 0, dead -1); higher = more abundant; growth selection in yeast, the domain comes from the species named
Conditions: Homo sapiens

Variant	abundance fitness
RRRVRAIEPYTKVPDTDEISFLKGDMFIVHNELEDGWMWVTNLRTDEQGLIVEDLVEEVGR	-0.067 ± 0.062
RRRVRAIYPYTKVPDTDEISFLKGDMFIVHNELEDGWMWVTNLRTDEQGLIVEDLVEEVGR	-0.084 ± 0.026
RRRVRAIHPYTKVPDTDEISFLKGDMFIVHNELEDGWMWVTNLRTDEQGLIVEDLVEEVGR	-0.037 ± 0.032
RRRVRAIVPYTKVPDTDEISFLKGDMFIVHNELEDGWMWVTNLRTDEQGLIVEDLVEEVGR	-0.039 ± 0.027
RRRVRAIDPYTKVPDTDEISFLKGDMFIVHNELEDGWMWVTNLRTDEQGLIVEDLVEEVGR	-0.149 ± 0.033
RRRVRAISPYTKVPDTDEISFLKGDMFIVHNELEDGWMWVTNLRTDEQGLIVEDLVEEVGR	-0.03 ± 0.025
RRRVRAIAPYTKVPDTDEISFLKGDMFIVHNELEDGWMWVTNLRTDEQGLIVEDLVEEVGR	0.074 ± 0.034
RRRVRAIMPYTKVPDTDEISFLKGDMFIVHNELEDGWMWVTNLRTDEQGLIVEDLVEEVGR	0.044 ± 0.044
RRRVRAIFPYTKVPDTDEISFLKGDMFIVHNELEDGWMWVTNLRTDEQGLIVEDLVEEVGR	-0.075 ± 0.027
RRRVRAIRPYTKVPDTDEISFLKGDMFIVHNELEDGWMWVTNLRTDEQGLIVEDLVEEVGR	-0.059 ± 0.031
RRRVRAIWPYTKVPDTDEISFLKGDMFIVHNELEDGWMWVTNLRTDEQGLIVEDLVEEVGR	-0.194 ± 0.043
RRRVRAIQPYTKVPDTDEISFLKGDMFIVHNELEDGWMWVTNLRTDEQGLIVEDLVEEVGR	-0.052 ± 0.058
RRRVRAINPYTKVPDTDEISFLKGDMFIVHNELEDGWMWVTNLRTDEQGLIVEDLVEEVGR	-0.102 ± 0.028
RRRVRAICPYTKVPDTDEISFLKGDMFIVHNELEDGWMWVTNLRTDEQGLIVEDLVEEVGR	-0.052 ± 0.026
RRRVRAIKPYTKVPDTDEISFLKGDMFIVHNELEDGWMWVTNLRTDEQGLIVEDLVEEVGR	-0.129 ± 0.054
RRRVRAIPPYTKVPDTDEISFLKGDMFIVHNELEDGWMWVTNLRTDEQGLIVEDLVEEVGR	-0.99 ± 0.094
RRRVRAIGPYTKVPDTDEISFLKGDMFIVHNELEDGWMWVTNLRTDEQGLIVEDLVEEVGR	-0.012 ± 0.026
RRRVRAILQYTKVPDTDEISFLKGDMFIVHNELEDGWMWVTNLRTDEQGLIVEDLVEEVGR	-0.091 ± 0.12
RRRVRAILFYTKVPDTDEISFLKGDMFIVHNELEDGWMWVTNLRTDEQGLIVEDLVEEVGR	-0.73 ± 0.039
RRRVRAILGYTKVPDTDEISFLKGDMFIVHNELEDGWMWVTNLRTDEQGLIVEDLVEEVGR	-0.059 ± 0.03
RRRVRAILKYTKVPDTDEISFLKGDMFIVHNELEDGWMWVTNLRTDEQGLIVEDLVEEVGR	-0.232 ± 0.07
RRRVRAILHYTKVPDTDEISFLKGDMFIVHNELEDGWMWVTNLRTDEQGLIVEDLVEEVGR	-0.157 ± 0.036

Variant	abundance fitness
RRRVRAILYYTKVPDTDEISFLKGDMFIVHNELEDGWMWVTNLRTDEQGLIVEDLVEEVGR	-0.796 ± 0.046
RRRVRAILMYTKVPDTDEISFLKGDMFIVHNELEDGWMWVTNLRTDEQGLIVEDLVEEVGR	-0.308 ± 0.082
RRRVRAILWYTKVPDTDEISFLKGDMFIVHNELEDGWMWVTNLRTDEQGLIVEDLVEEVGR	-0.805 ± 0.095
RRRVRAILLYTKVPDTDEISFLKGDMFIVHNELEDGWMWVTNLRTDEQGLIVEDLVEEVGR	-0.772 ± 0.048
RRRVRAILDYTKVPDTDEISFLKGDMFIVHNELEDGWMWVTNLRTDEQGLIVEDLVEEVGR	0.049 ± 0.033
RRRVRAILRYTKVPDTDEISFLKGDMFIVHNELEDGWMWVTNLRTDEQGLIVEDLVEEVGR	-0.311 ± 0.035
RRRVRAILEYTKVPDTDEISFLKGDMFIVHNELEDGWMWVTNLRTDEQGLIVEDLVEEVGR	-0.103 ± 0.069
RRRVRAILVYTKVPDTDEISFLKGDMFIVHNELEDGWMWVTNLRTDEQGLIVEDLVEEVGR	-0.855 ± 0.054
RRRVRAILAYTKVPDTDEISFLKGDMFIVHNELEDGWMWVTNLRTDEQGLIVEDLVEEVGR	-0.026 ± 0.039
RRRVRAILIYTKVPDTDEISFLKGDMFIVHNELEDGWMWVTNLRTDEQGLIVEDLVEEVGR	-0.876 ± 0.055
RRRVRAILTYTKVPDTDEISFLKGDMFIVHNELEDGWMWVTNLRTDEQGLIVEDLVEEVGR	-0.076 ± 0.038
RRRVRAILSYTKVPDTDEISFLKGDMFIVHNELEDGWMWVTNLRTDEQGLIVEDLVEEVGR	-0.044 ± 0.026
RRRVRAILNYTKVPDTDEISFLKGDMFIVHNELEDGWMWVTNLRTDEQGLIVEDLVEEVGR	-0.101 ± 0.031
RRRVRAILPYTAVPDTDEISFLKGDMFIVHNELEDGWMWVTNLRTDEQGLIVEDLVEEVGR	-0.029 ± 0.032
RRRVRAILPYTDVPDTDEISFLKGDMFIVHNELEDGWMWVTNLRTDEQGLIVEDLVEEVGR	-0.806 ± 0.056
RRRVRAILPYTLVPDTDEISFLKGDMFIVHNELEDGWMWVTNLRTDEQGLIVEDLVEEVGR	-0.779 ± 0.041
RRRVRAILPYTEVPDTDEISFLKGDMFIVHNELEDGWMWVTNLRTDEQGLIVEDLVEEVGR	-0.218 ± 0.11
RRRVRAILPYTHVPDTDEISFLKGDMFIVHNELEDGWMWVTNLRTDEQGLIVEDLVEEVGR	-0.184 ± 0.033
RRRVRAILPYTQVPDTDEISFLKGDMFIVHNELEDGWMWVTNLRTDEQGLIVEDLVEEVGR	-0.202 ± 0.096
RRRVRAILPYTFVPDTDEISFLKGDMFIVHNELEDGWMWVTNLRTDEQGLIVEDLVEEVGR	-0.985 ± 0.052
RRRVRAILPYTMVPDTDEISFLKGDMFIVHNELEDGWMWVTNLRTDEQGLIVEDLVEEVGR	-0.188 ± 0.053
